Reference: patent US6080542A, “Plant peptide transport gene” (priority 1997, dated 2000)
Like-named read-outs stand apart in the source and are kept apart here. Blank lines part the entries; values can stand above or below the molecule they belong to. Where a SMILES comes first, the peptide text is derived from it. Where no end group is shown, it is not given here. [ ]: non-standard residue; d: D form. hCys = N[C@@H](CCS)C(=O)O; Eth = ethionine

Tests used:
ATPTR2Ap = test: Uptake of L-leucyl-L-[3H]leucine and competition, PB1X-9B[pPTF4]; conditions: PB1X-9B transformed with pPTF4, compared with wild type, trifluoroacetic acid (TFA)
Method: The kinetics of ATPTR2A-mediated transport of peptides in yeast was evaluated by transforming pPTF4 into the S. cerevisiae peptide transport mutant, PB1X-9B and measuring the uptake of tritiated Leu-Leu dipeptide.
L-leucyl-L [^3 H]leucine trifluoroacetic acid (TFA) was synthesized by standard solution phase techniques (Naider, F. et al., J. Biol. Chem. 249:9-20 (1974)). Uptake of L-leucyl-L-[H]leucine was performed as by Island, M. D. et al (J. Bacteriol. 169:2132-2136 (1987)), with the following modifications. Cells were grown to late log phase (26×10^7 cells/ml) overnight in SC with 2% glucose, 1 mg/ml allantoin plus amino acids to supplement auxotrophic markers. To induce peptide transport. 5-15 ml from this culture was added to 100 ml fresh medium such that the density was 3.0×10^6 cells/ml. This culture was allowed to grow (approx. 2 hrs.) to a density of 6.0×10^6 cells/ml and then harvested by centrifugation. The pelleted cells were washed twice with 10 ml cold dH2 O and suspended in cold 2% glucose to a final concentration of 2×10^8 cells/ml and incubated at 30° C. for 15 min. 500 μl of cells were then added to an equal volume of reaction mixture (30° C.) and incubated at 30°-C. At 20, 40, 60, 90, and 120 sec. intervals, 190 μl portions were removed, filtered over filters (pore size, 0.45 μm; GN-6; Gelman Sciences, Inc., Ann Arbor, Mich.) and washed 2 times with 5 ml cold, sterile dH2 O and once with 5 ml dH2 O at room temperatures. Filters were placed in scintillation vials with 5 ml of Budget-Solve scintillation cocktail (Research Products International Corp., Mount Prospect, Ill.) and counted (liquid scintillation counter; LS-7000; Beckman Instruments, Inc., Fullerton, Calif.). The final concentration of the components in the uptake assay was 1% glucose, 40 mM sodium citrate-potassium phosphate buffer (pH 5.5), and 1.5×105 M L-leucyl-L-[^3 H]leucine (specific activity, 10 mCi/mmole). Uptake is expressed as nanomoles per mg dry weight.

PB1X-9B(pJP2) = test: Dipeptide utilization, L-alanyl-L-ethionine sensitivity and dileucine transport of secondary transformants; type: cell-based, Saccharomyces cerevisiae
Method: Plasmid pJP2 was then reintroduced into PB1X-9B. The resulting secondary yeast transformants were tested for the ability to use a variety of dipeptides as sources of amino acids and for sensitivity to the toxic dipeptide L-alanyl-L-ethionine. Thus, strains were grown in YEPG broth at 30° C. to a titer of 10^8 cells per ml. The cells were harvested by centrifugation, washed twice with sterile water and resuspended at 1.0×10^7 cells per ml. A 5-μl aliquot was applied to solid MM containing dipeptides and amino acids as required. Four types of solid media were routinely used in assessing dipeptide utilization: MM+L-leucyl-L-leucine-L-lysine+L-histidine, MM-L-lysI-L-lysine-L-leucine-L-histidine (SEQ ID NO:12), MM-L-lysl-L-leucine-L-histidine, and MM-L-histydyl-L-leucine-L-lysine. All dipeptides were present at a concentration of 80 μM, while amino acids and nucleotide bases were added as required at standard concentrations (Sherman, F. et al., In: Methods in Yeast Genetics, Cold Spring Harbor Laboratory, Clod Spring Harbor, N.Y. (1986)). The plates were incubated at 30° C. for 48 hours and then scored for growth.

S288C = test: Toxic peptide disk assay, wild type; type: cell-based, Saccharomyces cerevisiae; conditions: for diameter of zone of inhibition: disk with 0.38 μmoles, lawn of 5×10^6 cells, 30° C., 1 to 2 days, mean ± standard error
Method: (§1) Since ptr mutants are deficient in peptide transport, they are unable to take up toxic peptides. This inability renders such mutants resistant to the toxic effect of the peptides. In order to determine whether the polynucleotides of the present invention could restore toxic peptide sensitivity to ptr2 mutants, the sensitivity of plasmid-transformed cells was determined. Sensitivity to toxic amino acids and peptides was measured as described by Island, M. D. et al. (J. Bacteriol. 169:2132-2136 (1987)). Briefly, a filter disk containing 0.38 μmoles of the toxic compound was placed on a lawn containing 5×10^6 cells and the plate incubated at 30° C. for 1 to 2 days. Resulting halos were measured across their diameter. The toxic dipeptides Leu-Eth, Ala-Eth, Leu-F-Phe and Oxalysine were synthesized by standard solution phase techniques (Naider, F. et al., J. Biol. Chem. 249:9-20 (1974). The results of this experiment are shown in Table 2 (values are the mean of the diameters of the observed zone of inhibition in millimeters±standard error of the mean of at least two independent experiments).

PB1X-9B (pJP9) = test: Toxic peptide disk assay, mutant with yeast peptide transport gene; type: cell-based, Saccharomyces cerevisiae; conditions: for diameter of zone of inhibition: disk with 0.38 μmoles, lawn of 5×10^6 cells, 30° C., 1 to 2 days, mean ± standard error
Method: as §1

PB1X-9B (pPTF4) = test: Toxic peptide disk assay, mutant with plant gene ATPTR2A; type: cell-based, Saccharomyces cerevisiae; conditions: for diameter of zone of inhibition: disk with 0.38 μmoles, lawn of 5×10^6 cells, 30° C., 1 to 2 days, mean ± standard error
Method: as §1

[1] = system: S. cerevisiae strains tested; test: Toxic peptide disk assay, statements covering several strains; type: cell-based, Saccharomyces cerevisiae; conditions: wild type (S288C) and transformants
Method: as §1

A. thaliana seedlings = test: Root elongation of seedlings exposed to toxic peptides; type: in vivo, Arabidopsis thaliana
Method: (§2) Thus, A. thaliana seeds and seedlings were exposed to Ethionine, Ala-Eth, Leu-Eth, Leu-fluorophenylalanine or oxalysine containing peptides, and the minimum inhibitory concentrations (MIC) were determined for each of the toxic compounds.
Approximately 15 A. thaliana seeds were placed in a row at one end of 10 cm plate containing 20 ml of Arabidopsis growth media (Kranz and Kirchheim 1987). The seeds were incubated 3-5 days in the light with the plate set in an upright position. When the roots were approximately 1-2 cm long, sterile paper filter disks were placed immediately in front of the root tips on the right and left side of the plate 2 cm from the edge of the plate. A line was drawn across the plate using the top of the disks as a guide marking zero growth. 5 μl of toxic amino acid analog, toxic peptide, or toxic peptide plus competitor was added to one disk while H2 O was place on the other disk. The plates were incubated for an additional 3-5 days. The average length of the roots was measured from the line and the results expressed as a percentage of control root growth.

A. thaliana seeds = test: Seed germination with toxic peptides (minimum inhibitory concentration); type: in vivo, Arabidopsis thaliana; conditions: A. thaliana seeds
Method: as §2
To measure the minimum inhibitory concentration of the toxic peptides, 10 to 15 A. thaliara seeds were place on solid Arabidopsis growth media with decreasing concentrations of toxic peptide. The seeds were incubated for 4 days in the dark and then scored for germination.

L-alanyl-L-ethionine [2] = target: L-alanyl-L-ethionine
Leu-Eth [3] = target: Leu-Eth
Lys-Leu-Leu-Ala-Eth = target: T1, Lys-Leu-Leu-Ala-Eth; test: cell-based or functional assay
T1 peptide: KLLA-Eth

Lys-Leu-Leu-Leu-Eth = target: T2, Lys-Leu-Leu-Leu-Eth; test: cell-based or functional assay
T2 peptide: KLLL-Eth

L-alanyl-L-ethionine [4] = target: L-alanyl-L-ethionine; remark: listed apart in the source
Leu-Eth [5] = target: Leu-Eth; remark: listed apart in the source
Ala-Ala = target: T3, Ala-Ala; test: cell-based or functional assay
T3 peptide: AA

Ala-Ala-Ala = target: T4, Ala-Ala-Ala; test: cell-based or functional assay
T4 peptide: AAA

Met-Met = target: T5, Met-Met; test: cell-based or functional assay
T5 peptide: MM

Molecule: L-leucyl-L [^3 H]leucine trifluoroacetic acid (TFA) [[H^3]-dileucine]
uptake of radiolabeled dileucine (ATPTR2Ap; listed as radiolabeled dileucine): comparable to that of wild type
uptake of radiolabeled dileucine (ATPTR2Ap): wild-type levels
transport of radiolabeled dileucine (PB1X-9B(pJP2); compared with wild type): levels approximating those of the wild type

Molecule: Leu-fluorophenylalanine [Leu-F-Phe]
appearance of halo (S288C): hazy background within the halo
diameter of zone of inhibition (S288C): 28.0 ± 4.0 millimeters
appearance of halo (PB1X-9B (pJP9)): hazy background within the halo
diameter of zone of inhibition (PB1X-9B (pJP9)): 20.5 ± 3.0 millimeters
sensitivity or resistance to toxic compound (PB1X-9B (pPTF4)): restores sensitivity
diameter of zone of inhibition (PB1X-9B (pPTF4)): 37.0 ± 1.0 millimeters
sensitivity or resistance to toxic compound (PB1X-9B (pPTF4); listed as leucine-fluorophenylaianine): greater and more complete sensitivity
sensitivity to toxic compound [1]: less sensitive
amount that inhibits root elongation of seedlings (A. thaliana seedlings): not inhibited
amount that inhibits germination of seeds (A. thaliana seeds): not inhibited

Molecule: CCSCC[C@H](NC(=O)[C@H](C)N)C(=O)O [Ala-Eth, L-alanyl-L-ethionine] (H-Ala-[hCys](Et)-OH)
diameter of zone of inhibition (S288C): 33.5 ± 2.5 millimeters
diameter of zone of inhibition (PB1X-9B (pJP9)): 42.5 ± 2.5 millimeters
sensitivity or resistance to toxic compound (PB1X-9B (pPTF4)): restores sensitivity
diameter of zone of inhibition (PB1X-9B (pPTF4)): 35.0 ± 1.0 millimeters
amount that inhibits root elongation of seedlings (A. thaliana seedlings): 0.038 µmol
amount that inhibits germination of seeds (A. thaliana seeds): 0.038 µmol
sensitivity to toxic dipeptide (PB1X-9B(pJP2)): sensitive

diameter of the zone of inhibition, disk assay with 0.38 µmoles (L-alanyl-L-ethionine [2]): 42.5 mm
diameter of the zone of inhibition, disk assay with 0.38 µmoles (Leu-Eth [3]): 47 mm
diameter of the zone of inhibition, disk assay with 0.38 µmoles (Leu-F-Phe): 20.5 mm
diameter of the zone of inhibition, disk assay with 0.38 µmoles (Lys-Ala-Eth): 36 mm
diameter of the zone of inhibition, disk assay with 0.38 µmoles (Lys-Leu-Ala-Eth): 0 mm
diameter of the zone of inhibition, disk assay with 0.38 µmoles (Lys-Leu-Eth): 36 mm
diameter of the zone of inhibition, disk assay with 0.38 µmoles (Lys-Leu-Leu-Eth): 0 mm
diameter of the zone of inhibition, disk assay with 0.38 µmoles (Lys-Leu-Leu-Ala-Eth): 0 mm
diameter of the zone of inhibition, disk assay with 0.38 µmoles (Lys-Leu-Leu-Leu-Eth): 0 mm
B1: yeast peptide transporter SACPTR2p (other)
chain: MLNHPSQGSDDAQDEKQGDFPVIEEEKTQAVTLKDSYVSDDVANSTERYNLSPSPEDEDFEGPTEEEMQTLRHVGGKIPMRCWLIAIVELSERFSYYGLSAPFQNYMEYGPNDSPKGVLSLNSQGATGLSYFFQFWCYVTPVFGGYVADTFWGKYNTICCGTAIYIAGIFILFITSIPSVGNRDSAIGGFIAAIILIGIATGMIKANLSVLIADQLPKRKPSIKVLKSGERVIVDSNITLQNVFMFFYFMINVGSLSLMATTELEYHKGFWAAYLLPFCFFWIAVVTLIFGKKQYIQRPIGDKVIAKSFKVCWILTKNKFDFNAAKPSVHPEKNYPWNDKFVDEIKRALAACKVFIFYPIYWTQYGTMISSFITQASMMELHGIPNDFLQAFDSIALIIFIPIFEKFVYPFIRRYTPLKPITKIFFGFMFGSFAMTWAAVLQSFVYKAGPWYNEPLGHNTPNHVHVCWQIPAYVLISFSEIFASITGLEYAYSKAPASMKSFIMSIFLLTNAFGSAIGCALSPVTVDPKFTWLFTGLAVACFISGCLFWLCFRKYNDTEEEMNAMDYEEEDEFDLNPISAPKANDIEILEPMESLRSTTKY

diameter of the zone of inhibition, disk assay with 0.38 µmoles (L-alanyl-L-ethionine [2]): 35 mm
diameter of the zone of inhibition, disk assay with 0.38 µmoles (Leu-Eth [3]): 45 mm
diameter of the zone of inhibition, disk assay with 0.38 µmoles (Leu-F-Phe): 37 mm
diameter of the zone of inhibition, disk assay with 0.38 µmoles (Lys-Ala-Eth): 37.5 mm
diameter of the zone of inhibition, disk assay with 0.38 µmoles (Lys-Leu-Ala-Eth): 0 mm
diameter of the zone of inhibition, disk assay with 0.38 µmoles (Lys-Leu-Eth): 35 mm
diameter of the zone of inhibition, disk assay with 0.38 µmoles (Lys-Leu-Leu-Eth): 0 mm
inhibition of germination of A. thaliana seeds and of root elongation of seedlings (L-alanyl-L-ethionine [4]): 0.038 µmol
inhibition of germination of A. thaliana seeds and of root elongation of seedlings (Leu-Eth [5]): 0.038 µmol
diameter of the zone of inhibition, disk assay with 0.38 µmoles (Lys-Leu-Leu-Ala-Eth): 0 mm
diameter of the zone of inhibition, disk assay with 0.38 µmoles (Lys-Leu-Leu-Leu-Eth): 0 mm
reversal by a competitor peptide of the inhibition of A. thaliana root growth by Ala-Eth or Leu-Eth (Ala-Ala): 0 % of control root growth
reversal by a competitor peptide of the inhibition of A. thaliana root growth by Ala-Eth or Leu-Eth (Ala-Ala-Ala): 0 % of control root growth
reversal by a competitor peptide of the inhibition of A. thaliana root growth by Ala-Eth or Leu-Eth (Met-Met): 40 % of control root growth
B2: ATPTR2Ap protein (other)
chain: MSSIEEQITKSDSDFIISEDQSYLSKEKKADGSATINQADEQSSTDELQKSMSTGVLVNGDLYPSPTEEELATLPSVCGTIPWKAFIIIIVELCERFAYYGLTVPFQNYMQFGPKDATPGALNLGETGADGLSNFFTFWCYVTPVGAALIADQFLGRYNTIVCSAVIYFIGILILTCTAIPSVIDAGKSMGGFVVSLIIIGLGTGGIKSNVSPLMAEQLPKIPPYVKTKKNGSKVIVDPVVTTSRAYMIFYWTINVGSLSVLATTSLESTKGFVYAYLLPLCVFVIPLIILAVSKTAFTSTLLPPVPSLFVLVKCSSLLLKTNLISKKLNHLALLLLERYVKDQWDDLFIDELKRALRACKTFLFYPIYWVCYGQMTNNLISQAGQMQTGNVSNDLFQAFDSIALIIFIPICDNIIYPLLRKYNIPFKPILRITLGFMFATASMIYAAVLQAKIYQRGPCYANFTDTCVSNDISVWIQIPAYVLIAFSEIFASITGLEFAFTKAPPSMKSIITALFLFTNAFGAILSICISSTAVNPKLTWMYTGIAVTAFIAGIMFWVCFHHYDAMEDEQNQLEFKRNDALTKKDVEKEVHDSYSMADESQYNLEKANC
